Substrate in data set [1]: O=C(O)CCC(=O)C(=O)O
Kind of data set: purified protein. As to conditions: 500 mM D-alanine, 60 µM PLP, 50 mM CHES, pH 9.0, 60 °C. It counts as biochemical, Aminobacterium colombiense.

Substrate in data set [2]: N[C@H](CCC(=O)O)C(=O)O
Briefly: purified protein. Format: biochemical, Aminobacterium colombiense. As to conditions: 500 mM pyruvate, 60 µM PLP, 50 mM K-phosphate, pH 8.0, 60 °C.

By Km is commonly meant the concentration of substrate that gives half-maximal velocity. As a reminder, the kcat is the maximal rate divided by the concentration of active sites. As usually defined, the kcat/Km is the second-order rate constant that governs catalysis at low substrate concentration.

B1: AmicoTA (Aminobacterium colombiense DSM 12261) (protein)
chain: MNLCYIDGKFLPLEEAKLPVTDLIIQRGVGVFETISTHSRRPLMLTPHLKRLEGSATASSIVMPATLDEMARIIREGIKKMGCETMVRPYITGGDSFGKDHLFSSSRYFVIFEEIRKPDPILYEKGVALHPINAERYLPSTKSINYMLSFTGQRDSKGAYEILYCPEGEIVEGSHSTFFLIKNGHLITAPTSRALSGTTRQIVLELARRGNIQVEERCPLLTELPEAEEAFITGTVKELLPVVRIGDQIIGNGVPGKLTKHLHQVYLSSIVEWLE
notes: N-terminal His6-TEV tag kept for kinetics, cut for crystals; E. coli Rosetta (DE3) pLysS
With B1, in the data set “purified protein [1]”, the Km came out at 7.2 ± 0.8 mM, the kcat amounted to 9.9 ± 1.3 s⁻¹ and the kcat/Km is 1380 ± 330 M⁻¹ s⁻¹. In addition, in “purified protein [2]”, the Km is on record as 5.2 ± 0.6 mM, the kcat was found to be 1.4 ± 0.06 s⁻¹ and the kcat/Km was found to be 270 ± 40 M⁻¹ s⁻¹.

Source of the values: PMC10003956, “To the Understanding of Catalysis by D-Amino Acid Transaminases: A Case Study of the Enzyme from Aminobacterium colombiense” (Molecules, 2023).
